Biological target: T1, mouse IFNα4 without tag (Mus musculus, UniProt P07351)
T1 construct: Expressed with an N-terminal mouse IgG signal peptide (HVM06_MOUSE) and a C-terminal TEV site before the tags; Produced in a glycosylation deficient cell line; also called Interferon α; not shown: Twin-Strep-tag, C-terminal, cleaved; His8, C-terminal, cleaved
Assay: BLI; Octet Red96; αIFNα-ab covalently coupled (EDC/NHS) to Ni-NTA tips, increasing concentrations of IFNα4 in solution; kinetic buffer 0.2% BSA in PBS with 0.05% Tween 20; association 800 s, dissociation 1800 s; 1:1 interaction model
Conditions: both partners purified

T1 sequence (P07351 25-186): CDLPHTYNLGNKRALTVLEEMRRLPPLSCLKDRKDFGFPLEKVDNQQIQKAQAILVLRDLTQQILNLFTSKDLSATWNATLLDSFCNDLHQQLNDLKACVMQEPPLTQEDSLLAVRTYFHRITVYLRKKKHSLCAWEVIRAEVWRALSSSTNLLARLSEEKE

B1: soluble scFv αIFNα-ab (scFv, V domains shown)
VH: EVQLVESGGGLVRPGGSLKLSCTASGFTFSDFDMAWVRQAPTRGLEWVASISSGPANTHYRGSVRGRFTGSRNDAKSTLYLQMDSLRSEDTATYYCARPFGSGYYFDYWGQGVVVTVSS
VL: DTVLTQSPALAVSLGQRVTISCKASESVSSSTSNYMHWYQQKPGQRPKLLIYLASNLESGVPARFSGSGSGTDFILNIDPVEADDVATYFCQQSWNDPPTFGSGTKVELK
notes: VH of the rat anti-mouse IFNα hybridoma antibody 4EA1; linker, printed as (GGGGS)3; VL (kappa) of the rat anti-mouse IFNα hybridoma antibody 4EA1; Order VH-(GGGGS)3-VL; made with a signal peptide (secreted); also called anti-IFNα scFv; soluble form of the intrabody; not shown: His6, C-terminal, kept
A Kd of 38.6 nM, a koff of 0.00023 s⁻¹ and a kon of 5970 M⁻¹ s⁻¹ were found for B1 in this work.

Source: article PMC6467385, “ER intrabody-mediated inhibition of interferon α secretion by mouse macrophages and dendritic cells” (PLoS ONE, 2019)
